Here are results for one substance from article PMC6191436.

The test deals with FLAG-cyclin B1 (UniProt P14635). The experiment in a line: co-IP; MCF7 cells transfected with Myc-BRCA1-Δ11 and FLAG-cyclin B1, synchronised (aphidicolin 0.3 μM 24 h, release 8 h, nocodazole 100 ng/mL 24 h, release 2 h), without or with irradiation (10 Gy); anti-FLAG antibody-conjugated agarose; Western blot with anti-Myc. In general terms: Immunoblotting shows a protein as a band on a membrane.
Sequence of FLAG-cyclin B1 (P14635 whole entry): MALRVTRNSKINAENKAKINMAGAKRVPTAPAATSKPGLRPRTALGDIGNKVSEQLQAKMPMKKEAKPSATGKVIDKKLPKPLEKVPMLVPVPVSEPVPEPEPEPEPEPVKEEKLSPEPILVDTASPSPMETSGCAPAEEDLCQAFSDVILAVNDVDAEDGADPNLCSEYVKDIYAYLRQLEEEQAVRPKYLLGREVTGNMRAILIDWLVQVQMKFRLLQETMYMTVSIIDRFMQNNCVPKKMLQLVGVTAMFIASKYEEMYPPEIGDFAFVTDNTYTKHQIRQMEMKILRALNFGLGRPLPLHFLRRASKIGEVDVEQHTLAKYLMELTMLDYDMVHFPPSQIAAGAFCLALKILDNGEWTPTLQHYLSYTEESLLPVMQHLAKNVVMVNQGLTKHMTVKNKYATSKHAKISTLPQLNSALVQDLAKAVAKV

Sequence of Myc-BRCA1-Δ11 (P38398 whole entry, stated change not applied): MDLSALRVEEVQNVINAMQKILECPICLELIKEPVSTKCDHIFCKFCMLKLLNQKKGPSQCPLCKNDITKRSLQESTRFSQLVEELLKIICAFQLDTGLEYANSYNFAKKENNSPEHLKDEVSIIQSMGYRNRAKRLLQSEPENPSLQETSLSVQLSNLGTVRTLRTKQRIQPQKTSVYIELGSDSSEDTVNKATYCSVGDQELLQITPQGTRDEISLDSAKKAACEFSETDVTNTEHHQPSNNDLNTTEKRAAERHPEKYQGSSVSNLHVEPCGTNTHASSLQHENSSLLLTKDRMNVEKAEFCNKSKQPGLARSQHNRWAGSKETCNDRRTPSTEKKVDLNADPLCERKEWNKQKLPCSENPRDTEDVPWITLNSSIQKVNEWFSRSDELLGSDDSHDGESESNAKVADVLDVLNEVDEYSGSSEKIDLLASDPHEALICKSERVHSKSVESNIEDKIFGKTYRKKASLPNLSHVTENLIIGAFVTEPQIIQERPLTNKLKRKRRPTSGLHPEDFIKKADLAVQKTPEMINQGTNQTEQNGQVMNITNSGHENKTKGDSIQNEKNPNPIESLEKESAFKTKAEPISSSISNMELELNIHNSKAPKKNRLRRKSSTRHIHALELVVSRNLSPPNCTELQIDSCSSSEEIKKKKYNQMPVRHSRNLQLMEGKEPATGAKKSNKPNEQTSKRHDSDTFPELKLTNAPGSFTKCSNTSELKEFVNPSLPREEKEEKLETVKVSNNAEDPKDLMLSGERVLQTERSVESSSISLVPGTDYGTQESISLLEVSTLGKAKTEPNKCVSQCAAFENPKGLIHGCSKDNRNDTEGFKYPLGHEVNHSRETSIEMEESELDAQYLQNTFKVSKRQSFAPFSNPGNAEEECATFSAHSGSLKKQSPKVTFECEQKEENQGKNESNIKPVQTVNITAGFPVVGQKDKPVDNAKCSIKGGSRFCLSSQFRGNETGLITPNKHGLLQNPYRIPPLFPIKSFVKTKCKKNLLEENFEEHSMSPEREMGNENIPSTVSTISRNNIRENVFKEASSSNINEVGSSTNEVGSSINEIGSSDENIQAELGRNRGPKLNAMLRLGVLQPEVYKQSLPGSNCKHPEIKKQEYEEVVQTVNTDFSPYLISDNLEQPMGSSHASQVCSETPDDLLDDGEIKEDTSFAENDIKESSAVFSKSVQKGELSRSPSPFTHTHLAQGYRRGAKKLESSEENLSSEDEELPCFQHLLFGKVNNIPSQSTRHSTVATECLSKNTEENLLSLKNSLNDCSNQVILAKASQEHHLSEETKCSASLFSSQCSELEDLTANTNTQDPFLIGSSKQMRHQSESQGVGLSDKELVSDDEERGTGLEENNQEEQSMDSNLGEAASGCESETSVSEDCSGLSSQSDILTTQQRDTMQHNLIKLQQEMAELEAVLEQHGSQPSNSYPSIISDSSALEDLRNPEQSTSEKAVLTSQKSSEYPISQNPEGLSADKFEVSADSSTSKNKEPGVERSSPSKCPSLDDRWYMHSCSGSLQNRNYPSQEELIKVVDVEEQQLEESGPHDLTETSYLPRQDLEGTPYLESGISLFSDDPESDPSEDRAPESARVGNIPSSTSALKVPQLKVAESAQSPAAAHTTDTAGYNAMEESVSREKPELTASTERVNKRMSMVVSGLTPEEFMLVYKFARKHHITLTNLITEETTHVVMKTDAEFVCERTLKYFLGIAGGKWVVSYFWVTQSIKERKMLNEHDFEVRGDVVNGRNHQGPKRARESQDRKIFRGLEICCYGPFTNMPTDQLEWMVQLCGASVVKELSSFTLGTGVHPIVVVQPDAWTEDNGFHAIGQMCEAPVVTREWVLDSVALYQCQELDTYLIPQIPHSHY

“Myc-BRCA1-Δ11 (from UniProt P38398-5 1-721) (natural protein)” returned an interaction upon irradiation relative to no irradiation (nocodazole-treated cells) of 214%.
